B1: PPP2R2C (parent)
chain: YSSSKGSLRLCDMRAAALCDKHSK
B2: TRAF3IP2 (parent)
chain: PRPPSNPPARGTLKTSNLPEELRK

Variants of: B1
Experiment: protein stability index of a GFP-peptide fusion (GPS, HEK-293T) (PSI 1-6); higher = more stable
Conditions: c terminus: a fixed tail appended
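Also: lentivirally expressed fusions sorted by FACS into six bins by GFP to DsRed ratio, PSI derived from sequencing read proportions per bin multiplied by bin number.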

Protein stability index, by site and new letter:
S4: Q 2.32; W 1.63; L 2.62; N 2.32; Y 1.98; K 1.34; I 2.06; A 2.44; T 1.8; D 2.96; H 2.09; V 2.45; R 2.11; G 2.87; C 1.38; M 2; E 2.78; F 2.27; P 2.57
S7: Q 2.04; W 3.69; H 2.92; E 1.56; D 2.24; I 1.34; M 1.76; N 1.65; A 2.9; R 2.04; V 2.24; C 1.76; P 1.89; T 1.8; L 1.49; G 4.06; K 1.07; Y 1.94
R9: K 3.11; D 4.21; P 3.11; H 2.42; C 3.28; A 2.63; G 1.9; Q 3.3; N 3.45; M 1.9; L 3.61; S 3.81; I 1.7; E 3.7; Y 1.76; F 2.37; T 3.28; V 2.91
Y1: D 4.63; V 3.56; G 3.72; W 2.92; F 2.31; A 3.93; C 2.98; N 3.81; R 3.81; T 4.13; M 3.54; P 3.65; S 3.74; L 3.65; I 3.73; E 4.47; Q 3.95; K 3.79; H 3.72
A15: G 2.24; E 2.61; F 2.4; C 1.14; H 1.78; I 1.96; D 1.72
S2: Y 2.94; H 2; K 3.58; R 2.98; D 3.89; L 2.52; A 2.44; F 2.8; P 2.5; G 2.46; C 1.92; W 1.89; T 2; N 3.28; E 3.84; Q 1.94; I 1.54; M 1.72
S3: R 2.29; V 1.96; G 1.95; W 2.15; K 2.37; Y 1.83; I 3.06; F 2.39; L 2.7; N 2.48; D 2.92; Q 2.45; A 2.93; M 2.84; P 2.79; T 2.11; H 2.52; E 2.53; C 3.48
R14: N 2.48; L 2.18; Y 2.45; A 2.03; T 1.98; E 2.3; P 1.8; V 1.81; S 2.02; K 1.68; G 2.13; C 2.89; F 2.27; H 2.34; M 2.29; Q 1.27; D 1.55; W 1.69
M13: Q 1.83; P 2.21; R 1.68; L 2; E 2.49; N 2.05; S 1.65; Y 3.27; G 2; H 1.56; A 1.52; C 1.73; W 1.61; K 2.08; T 2.21; V 2.07; F 1.46; I 2.08; D 2.37
C11: D 3.74; Y 2.75; R 3.31; I 1.42; F 1.67; L 2.36; H 3.63; V 1.8; W 1.2; Q 2.97; T 2.88; A 2.96; S 3.16; K 3.07; E 3.85; M 2.29; N 3.72; P 4.05; G 2.92
K5: G 1.49; E 1.73; H 1.68; N 1.43; R 1.85; V 1.55; F 1.84; M 2.1; Q 2.12; C 1.68; A 1.65; Y 1.52; P 2.03; W 2.11; L 1.93; D 2.06; I 2.19; T 2.23; S 2.27
G6: W 1.76; A 1.91; V 2.21; T 2.07; Y 1.52; L 2.18; P 2.48; Q 2.39; D 2.73; H 2.04; I 2.31; F 1.81; K 2.2; E 2.68; C 1.95; S 1.82; N 1.94; M 1.85; R 2.05
L8: I 1.78; K 2.17; R 1.51; P 2.27; G 2.19; V 1.95; S 2.02; M 1.79; T 1.97; H 2.64; E 2.41; C 2.5; F 2.5; A 1.75; W 2.39; N 2.36; Q 1.89; Y 1.36; D 2.76
D12: M 1.78; W 2.7; Q 2.76; F 1.52; I 1.6; C 1.99; V 2.11; R 2.36; P 2.25; H 3.2; K 2.54; Y 2.1; S 2.29; E 2.71; N 2.63; G 1.93; L 1.82; A 2.32; T 2.69
L10: S 3.54; Y 2.02; R 3.16; F 2.22; N 3.67; C 2.95; P 3.52; Q 3.79; M 1.92; W 2.21; E 4.47; I 2.9; D 4.23; T 3.35; H 3.04; A 3.72; V 3.54; K 3.1; G 3.53

Variants of: B2
Experiment: as above
Conditions: c terminus: a fixed tail appended

Protein stability index of substitutions, site by site:
P4: C 4.84; L 4.58; N 4.7; Y 4.43; Q 4.88
A9: F 4.37; E 5.06; D 5; H 4.63
R10: G 4.27
T15: C 4.72
R2: W 4.85
N17: D 5.09
G11: Y 4.28; F 3.69
P3: W 4.83; Q 4.2
T12: D 4.88; E 4.54
L13: C 3.92; R 4.6; F 4.37; G 4.67
L22: C 5.65; M 4.75
P19: W 3.98; A 4.48; H 3.36; S 4.75
S5: T 4.56; G 4.89
R23: E 4.94
N6: L 5.01; F 5.34
E20: F 4.06; D 4.81; H 3.96; C 4.44
L18: R 4.56; D 4.67
K24: A 4.86; N 4.87; D 5.14; H 4.79; G 4.05; P 3.9; E 4.99; I 4.24
E21: N 4.6; V 3.74
P8: A 5.06; L 4.69; S 4.8; Y 4.69; F 4.43
K14: Y 4.77
P1: K 4.63; F 4.31
P7: E 4.81; N 5.17
S16: F 4.47; T 4.92; I 4.49; C 4.19; V 4.17

Reference: the supplement of paper PMC10567573
